The source of these data is the RNAGym collection of RNA variant scans (doi:10.1093/molbev/msab373).

B1: Azoarcus group I ribozyme (parent)
chain: GUGCCUUGCGCCGGGAAACCACGCAAGGGAUGGUGUCAAAUUCGGCGAAACCUAAGCGCCCGCCCGGGCGUAUGGCAACGCCGAGCCAAGCUUCGGCGCCUGCGCCGAUGAAGGUGUAGAGACUAGACGGCACCCACCUAAGGCAAACGCUAUGGUGAAGGCAUAGUCCAGGGAGUGGCGAAAGUCACACAAACCGG

In the data set the parent is B1. Kind of data set: reverse-splicing fitness (ratio to wild type); higher = more active; in vitro selection; Mg2+ level not given. The method in brief: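 An in vitro group I ribozyme library with randomized positions was T7-transcribed and gel-purified. In triplicate, 10 pmol RNA in EPPS pH 7.5 was reacted with 50 pmoles of a 30-nt RNA substrate for 1 h at 37 °C across several added MgCl2 levels (1–48 mM), then stopped with EDTA. Products were reverse transcribed from a substrate-complementary primer, PCR-amplified and sequenced (HiSeq 4000). Fitness is a variant's read proportion after selection over that before, normalised to wild type.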
With GUGCCUUGCGCCGGGAAACCACGCAAGGGAUGGUGUCAAAUUCGGCGAAACCUAAGCGCCCGCCCGGGCGUAUGGCAACGCCGAGCCAAGCUUCGGCGCCUGCGCCGAUGGAGGUGUAGAGACUAGACGGCACCCACCUAAGGCUAACGCUAUGGUGAAGGCAUAGUCGAGGGAGAGGCGAAAGUCACACAAACCGG [A111G A145U C169G U176A], the reverse-splicing fitness amounted to 0.0268.

Take GUGCCUUGCGCCGGGAAACCACGCAAGGGAUGGUGUCAAAUUCGGCGAAACCUAAGCGCCCGCCCGGGCGUAUGGCAACGCCGAGCCAAGCUUCGGCGCCUGCGCCGAUGGAGGUGUAGGGACUAGACGGCACCCACCUAAGGCCAACGCUAUGGUGAAGGCAUAGUCUAGGGAGGGGCGAAAGUCACACAAACCGG [A111G A120G A145C C169U U176G]: the reverse-splicing fitness came out at 0.00876.

With GUGCCUUGCGCCGGGAAACCACGCAAGGGAUGGUGUCAAAUUCGGCGAAACCUAAGCGCCCGCCCGGGCGUAUGGCAACGCGGAGCCAAGCUUCGGCGCCUGCGCCGAUGCAGGUGUAGUGACUAGACGGCACCCACCUAAGGCUAACGCUAUGGUGAAGGCAUAGUCUAGGGAGAGGCGAAAGUCACACAAACCGG [C82G A111C A120U A145U C169U U176A], the reverse-splicing fitness is 0.00319.

With GUGCCUUGCGCCGGGAAACCACGCAAGGGAUGGUGUCAAAUUCGGCGAAACCUAAGCGCCCGCCCGGGCGUAUGGCAACGCCGAGCCAAGCUUCGGCGCCUGCGCCGAUGGAGGUGUAGGGACUAGACGGCACCCACCUAAGGCAAACGAUAUGGUGAAGGCAUAGUCAAGGGAGAGGCGAAAGUCACACAAACCGG [A111G A120G C150A C169A U176A], the reverse-splicing fitness came to 0.0205.

As to GUGCCUUGCGCCGGGAAACCACGCAAGGGAUGGUGUCAAAUUCGGCGAAACCUAAGCGCCCGCCCGGGCGUAUGGCAACGCGGAGCCAAGCUUCGGCGCCUGCGCCGAUGUAGGUGUAGAGACUAGACGGCACCCACCUAAGGCAAACGUUAUGGUGAAGGCAUAGUCUAGGGAGUGGCGAAAGUCACACAAACCGG [C82G A111U C150U C169U], the reverse-splicing fitness turned out to be 0.0118.

Consider GUGCCUUGCGCCGGGAAACCACGCAAGGGAUGGUGUCAAAUUCGGCGAAACCUAAGCGCCCGCCCGGGCGUAUGGCAACGCCGAGCCAAGCUUCGGCGCCUGCGCCGAUGCAGGUGUAGCGACUAGACGGCACCCACCUAAGGCCAACGUUAUGGUGAAGGCAUAGUCAAGGGAGAGGCGAAAGUCACACAAACCGG [A111C A120C A145C C150U C169A U176A], for which the reverse-splicing fitness was determined as 0.0107.

GUGCCUUGCGCCGGGAAACCACGCAAGGGAUGGUGUCAAAUUCGGCGAAACCUAAGCGCCCGCCCGGGCGUAUGGCAACGCAGAGCCAAGCUUCGGCGCCUGCGCCGAUGCAGGUGUAGUGACUAGACGGCACCCACCUAAGGCCAACGCUAUGGUGAAGGCAUAGUCGAGGGAGAGGCGAAAGUCACACAAACCGG [C82A A111C A120U A145C C169G U176A]: the reverse-splicing fitness came out at 0.00292.

As for GUGCCUUGCGCCGGGAAACCACGCAAGGGAUGGUGUCAAAUUCGGCGAAACCUAAGCGCCCGCCCGGGCGUAUGGCAACGCGGAGCCAAGCUUCGGCGCCUGCGCCGAUGAAGGUGUAGAGACUAGACGGCACCCACCUAAGGCUAACGGUAUGGUGAAGGCAUAGUCGAGGGAGCGGCGAAAGUCACACAAACCGG [C82G A145U C150G C169G U176C], the reverse-splicing fitness was found to be 0.00645.

GUGCCUUGCGCCGGGAAACCACGCAAGGGAUGGUGUCAAAUUCGGCGAAACCUAAGCGCCCGCCCGGGCGUAUGGCAACGCAGAGCCAAGCUUCGGCGCCUGCGCCGAUGAAGGUGUAGAGACUAGACGGCACCCACCUAAGGCUAACGGUAUGGUGAAGGCAUAGUCCAGGGAGCGGCGAAAGUCACACAAACCGG [C82A A145U C150G U176C]: the reverse-splicing fitness amounted to 0.0521.

Take GUGCCUUGCGCCGGGAAACCACGCAAGGGAUGGUGUCAAAUUCGGCGAAACCUAAGCGCCCGCCCGGGCGUAUGGCAACGCUGAGCCAAGCUUCGGCGCCUGCGCCGAUGUAGGUGUAGCGACUAGACGGCACCCACCUAAGGCCAACGUUAUGGUGAAGGCAUAGUCGAGGGAGGGGCGAAAGUCACACAAACCGG [C82U A111U A120C A145C C150U C169G U176G]: the reverse-splicing fitness is 0.00538.

As for GUGCCUUGCGCCGGGAAACCACGCAAGGGAUGGUGUCAAAUUCGGCGAAACCUAAGCGCCCGCCCGGGCGUAUGGCAACGCUGAGCCAAGCUUCGGCGCCUGCGCCGAUGAAGGUGUAGUGACUAGACGGCACCCACCUAAGGCCAACGUUAUGGUGAAGGCAUAGUCUAGGGAGAGGCGAAAGUCACACAAACCGG [C82U A120U A145C C150U C169U U176A], the reverse-splicing fitness was found to be 0.00232.

GUGCCUUGCGCCGGGAAACCACGCAAGGGAUGGUGUCAAAUUCGGCGAAACCUAAGCGCCCGCCCGGGCGUAUGGCAACGCUGAGCCAAGCUUCGGCGCCUGCGCCGAUGGAGGUGUAGUGACUAGACGGCACCCACCUAAGGCUAACGUUAUGGUGAAGGCAUAGUCCAGGGAGGGGCGAAAGUCACACAAACCGG [C82U A111G A120U A145U C150U U176G]: the reverse-splicing fitness was 0.00372.

For the variant GUGCCUUGCGCCGGGAAACCACGCAAGGGAUGGUGUCAAAUUCGGCGAAACCUAAGCGCCCGCCCGGGCGUAUGGCAACGCGGAGCCAAGCUUCGGCGCCUGCGCCGAUGCAGGUGUAGUGACUAGACGGCACCCACCUAAGGCCAACGGUAUGGUGAAGGCAUAGUCAAGGGAGCGGCGAAAGUCACACAAACCGG [C82G A111C A120U A145C C150G C169A U176C], the reverse-splicing fitness came out at 0.00252.

On to GUGCCUUGCGCCGGGAAACCACGCAAGGGAUGGUGUCAAAUUCGGCGAAACCUAAGCGCCCGCCCGGGCGUAUGGCAACGCUGAGCCAAGCUUCGGCGCCUGCGCCGAUGAAGGUGUAGGGACUAGACGGCACCCACCUAAGGCUAACGCUAUGGUGAAGGCAUAGUCCAGGGAGAGGCGAAAGUCACACAAACCGG [C82U A120G A145U U176A], for which the reverse-splicing fitness was found to be 0.0127.

For GUGCCUUGCGCCGGGAAACCACGCAAGGGAUGGUGUCAAAUUCGGCGAAACCUAAGCGCCCGCCCGGGCGUAUGGCAACGCAGAGCCAAGCUUCGGCGCCUGCGCCGAUGUAGGUGUAGCGACUAGACGGCACCCACCUAAGGCAAACGUUAUGGUGAAGGCAUAGUCGAGGGAGAGGCGAAAGUCACACAAACCGG [C82A A111U A120C C150U C169G U176A], the reverse-splicing fitness is 0.0159.
